Measured values taken from the supplement of paper PMC9112550, “Optimization of the antimicrobial peptide Bac7 by deep mutational scanning” (BMC Biology, 2022).

What follows are sequences tested on Escherichia coli TOP10 (assay: shrunken log2 fold change of peptide-encoding DNA abundance (4.5 h post-induction vs induction); higher = less antimicrobial activity (less host growth inhibition)). Conditions: time post-induction: 4.5 h; library: site-saturation at positions 5, 18, 19, 20.
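Note: peptides expressed intracellularly from a pBAD plasmid library in pooled LB shake-flask culture, induced with 0.3% L-arabinose, DNA abundance read by NGS, three biological replicates, DESeq2 with apeglm shrinkage.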

Sequence	shrunken log2 fold change
RRIRCRPPRLPRPRPRPITYPRP	-0.362
RRIRDRPPRLPRPRPRPWFNPRP	-0.161
RRIRARPPRLPRPRPRPAHDPRP	0.184
RRIRKRPPRLPRPRPRPIFTPRP	0.118
RRIRDRPPRLPRPRPRPLANPRP	0.861
RRIRIRPPRLPRPRPRPGCDPRP	0.0474
RRIRQRPPRLPRPRPRPQRMPRP	-0.0094
RRIRERPPRLPRPRPRPRKRPRP	0.255
RRIRGRPPRLPRPRPRPNQIPRP	0.109
RRIRHRPPRLPRPRPRPAYTPRP	-0.482
RRIRLRPPRLPRPRPRPPLAPRP	0.519
RRIRLRPPRLPRPRPRPYVAPRP	-0.602
RRIRMRPPRLPRPRPRPNTLPRP	-0.507
RRIRCRPPRLPRPRPRPWWLPRP	-0.0111
RRIRVRPPRLPRPRPRPKGFPRP	-0.00211
RRIRNRPPRLPRPRPRPVCWPRP	0.469
RRIRFRPPRLPRPRPRPHIQPRP	-0.594
RRIRERPPRLPRPRPRPESMPRP	-0.46
RRIRMRPPRLPRPRPRPNNDPRP	-0.0943
RRIRYRPPRLPRPRPRPLNFPRP	-1.01
RRIRCRPPRLPRPRPRPNRTPRP	-0.0547
RRIRKRPPRLPRPRPRPTRPPRP	0.764
RRIRYRPPRLPRPRPRPMIEPRP	0.00164
RRIRDRPPRLPRPRPRPIQWPRP	-0.153
RRIRARPPRLPRPRPRPFEEPRP	0.424

Sequence	shrunken log2 fold change
RRIRVRPPRLPRPRPRPYYWPRP	-0.0974
RRIRMRPPRLPRPRPRPRWWPRP	1.11
RRIRNRPPRLPRPRPRPWLSPRP	0.0232
RRIRVRPPRLPRPRPRPMNCPRP	0.0359
RRIRPRPPRLPRPRPRPPRRPRP	0.638
RRIRGRPPRLPRPRPRPQHQPRP	0.524
RRIRQRPPRLPRPRPRPDASPRP	0.0949
RRIRKRPPRLPRPRPRPKAYPRP	0.0431
RRIRMRPPRLPRPRPRPIMWPRP	-0.042
RRIRHRPPRLPRPRPRPQIGPRP	-0.0135
RRIRHRPPRLPRPRPRPNCYPRP	-0.0056
RRIRIRPPRLPRPRPRPNTTPRP	-0.357
RRIRVRPPRLPRPRPRPFCKPRP	-0.144
RRIRVRPPRLPRPRPRPEMKPRP	-0.184
RRIRTRPPRLPRPRPRPERYPRP	0.0845
RRIRYRPPRLPRPRPRPHPQPRP	-0.0957
RRIRRRPPRLPRPRPRPFGGPRP	0.0433
RRIRLRPPRLPRPRPRPMRCPRP	0.0565
RRIRERPPRLPRPRPRPFPTPRP	-0.573
RRIRPRPPRLPRPRPRPWNCPRP	-0.134
RRIRDRPPRLPRPRPRPMPHPRP	-0.0342
RRIRGRPPRLPRPRPRPGRKPRP	0.747
RRIRFRPPRLPRPRPRPHRPPRP	-0.157
RRIRPRPPRLPRPRPRPWWYPRP	-0.121
RRIRVRPPRLPRPRPRPPCVPRP	-0.112

Sequence	shrunken log2 fold change
RRIRKRPPRLPRPRPRPACFPRP	-0.0348
RRIRARPPRLPRPRPRPTTGPRP	0.331
RRIRRRPPRLPRPRPRPIITPRP	-0.253
RRIRIRPPRLPRPRPRPLDEPRP	-0.287
RRIRPRPPRLPRPRPRPKFPPRP	0.119
RRIRSRPPRLPRPRPRPFLHPRP	-0.174
RRIRDRPPRLPRPRPRPKIEPRP	-0.305
RRIRGRPPRLPRPRPRPRPFPRP	0.889
RRIRVRPPRLPRPRPRPKDPPRP	-0.106
RRIRVRPPRLPRPRPRPYWFPRP	-0.396
RRIRQRPPRLPRPRPRPYQIPRP	-0.227
RRIRQRPPRLPRPRPRPHLIPRP	-0.0982
RRIRKRPPRLPRPRPRPCIYPRP	-0.198
RRIRSRPPRLPRPRPRPRWMPRP	-0.206
RRIRTRPPRLPRPRPRPDHRPRP	0.0733
RRIRPRPPRLPRPRPRPHPGPRP	2.42
RRIRRRPPRLPRPRPRPFNEPRP	-0.846
RRIRWRPPRLPRPRPRPNVCPRP	0.0917
RRIRFRPPRLPRPRPRPREFPRP	0.0793
RRIRYRPPRLPRPRPRPSTPPRP	-0.24
RRIRTRPPRLPRPRPRPKQLPRP	0.23
RRIRGRPPRLPRPRPRPVICPRP	0.252
RRIRVRPPRLPRPRPRPSCDPRP	-0.231
RRIRSRPPRLPRPRPRPKQIPRP	0.0712
RRIRQRPPRLPRPRPRPLVCPRP	0.0584

Sequence	shrunken log2 fold change
RRIRDRPPRLPRPRPRPYPDPRP	-0.27
RRIRQRPPRLPRPRPRPHHVPRP	-0.0277
RRIRDRPPRLPRPRPRPEVYPRP	-0.00999
RRIRLRPPRLPRPRPRPLGSPRP	-0.00618
RRIRARPPRLPRPRPRPKNAPRP	0.323
RRIRRRPPRLPRPRPRPTKAPRP	0.372
RRIRLRPPRLPRPRPRPMQSPRP	0.0626
RRIRCRPPRLPRPRPRPLLFPRP	-0.277
RRIRMRPPRLPRPRPRPDKYPRP	-0.212
RRIRARPPRLPRPRPRPQCEPRP	0.724
RRIRPRPPRLPRPRPRPGLGPRP	0.389
RRIRNRPPRLPRPRPRPCGAPRP	0.144
RRIRSRPPRLPRPRPRPKDHPRP	-0.131
RRIRLRPPRLPRPRPRPVWDPRP	-0.0661
RRIRVRPPRLPRPRPRPQFCPRP	-0.17
RRIRDRPPRLPRPRPRPYGNPRP	-0.117
RRIRPRPPRLPRPRPRPMCLPRP	-0.0489
RRIRSRPPRLPRPRPRPCATPRP	0.162
RRIRMRPPRLPRPRPRPFKMPRP	0.0516
RRIRMRPPRLPRPRPRPCSMPRP	-0.0341
RRIRGRPPRLPRPRPRPGKVPRP	0.598
RRIRNRPPRLPRPRPRPREEPRP	-0.0547
RRIRVRPPRLPRPRPRPNQHPRP	-0.289
RRIRPRPPRLPRPRPRPGANPRP	0.364
RRIRYRPPRLPRPRPRPYYYPRP	-0.476

Sequence	shrunken log2 fold change
RRIRKRPPRLPRPRPRPQDEPRP	-0.0149
RRIRERPPRLPRPRPRPNYVPRP	-0.931
RRIRFRPPRLPRPRPRPVVVPRP	-0.0228
RRIRPRPPRLPRPRPRPMYAPRP	-0.302
RRIRLRPPRLPRPRPRPGFQPRP	-0.0314
RRIRERPPRLPRPRPRPNDSPRP	-0.0224
RRIRRRPPRLPRPRPRPYEQPRP	-0.214
RRIRERPPRLPRPRPRPKGQPRP	0.132
RRIRWRPPRLPRPRPRPIPFPRP	-0.102
RRIRHRPPRLPRPRPRPERWPRP	0.357
RRIRDRPPRLPRPRPRPPRDPRP	0.771
RRIRWRPPRLPRPRPRPTWTPRP	0.303
RRIRLRPPRLPRPRPRPWVLPRP	-0.0289
RRIRDRPPRLPRPRPRPEGAPRP	1.78
RRIRDRPPRLPRPRPRPYWFPRP	-0.579
RRIRRRPPRLPRPRPRPQSWPRP	0.519
RRIRRRPPRLPRPRPRPYIFPRP	-0.639
RRIRFRPPRLPRPRPRPQMGPRP	-0.209
RRIRGRPPRLPRPRPRPDFMPRP	0.545
RRIRGRPPRLPRPRPRPYYGPRP	-0.289
RRIRRRPPRLPRPRPRPKILPRP	-0.199
RRIRLRPPRLPRPRPRPSTFPRP	-0.33
RRIRERPPRLPRPRPRPDLLPRP	-0.183
RRIRMRPPRLPRPRPRPSYWPRP	0.0657
RRIRARPPRLPRPRPRPIFWPRP	0.305

Sequence	shrunken log2 fold change
RRIRSRPPRLPRPRPRPLCHPRP	-0.157
RRIRLRPPRLPRPRPRPLHPPRP	-0.0561
RRIRHRPPRLPRPRPRPFWEPRP	-0.218
RRIRVRPPRLPRPRPRPWMLPRP	-0.2
RRIRDRPPRLPRPRPRPTQMPRP	0.583
RRIRIRPPRLPRPRPRPKNMPRP	-0.577
RRIRLRPPRLPRPRPRPNHKPRP	-0.335
RRIRARPPRLPRPRPRPTMQPRP	0.418
RRIRQRPPRLPRPRPRPGTNPRP	-0.0906
RRIRCRPPRLPRPRPRPCIWPRP	-0.0143
RRIRLRPPRLPRPRPRPENPPRP	-0.173
RRIRARPPRLPRPRPRPPPWPRP	1.03
RRIRNRPPRLPRPRPRPLENPRP	-0.0075
RRIRTRPPRLPRPRPRPSKIPRP	-0.24
RRIRYRPPRLPRPRPRPIVTPRP	-0.015
RRIRGRPPRLPRPRPRPNLYPRP	0.0462
RRIRGRPPRLPRPRPRPAQLPRP	0.435
RRIRIRPPRLPRPRPRPKENPRP	-0.505
RRIRNRPPRLPRPRPRPHIHPRP	-0.445
RRIRDRPPRLPRPRPRPKGQPRP	0.116
RRIRYRPPRLPRPRPRPMHSPRP	-1.02
RRIRFRPPRLPRPRPRPSTMPRP	-0.391
RRIRSRPPRLPRPRPRPEWYPRP	0.341
RRIRVRPPRLPRPRPRPHFDPRP	0.0221
RRIRKRPPRLPRPRPRPYNHPRP	-0.0988
